Measured values: US20070020327A1

The substances below were run against HLA-A*2401 (human) (assay: competition with 125I-labeled probe peptide for purified HLA, gel filtration). Conditions: scale: ratio.

**Q.** With “PAP peptide … (position 83, 10 amino acids)” as the substance, how does the binding affinity ratio (relative to standard peptide) read?
**A.** 0.0067

**Q.** Which binding affinity ratio (relative to standard peptide) does the source give for “PSM peptide … (position 621, 9 amino acids)” here?
**A.** 0.001

**Q.** With “PSA peptide … (position 98, 9 amino acids)” as the substance, how does the binding affinity ratio (relative to standard peptide) read?
**A.** 0.0001

These substances were tested against HLA-A*2401 (human) (assay: competition with 125I-labelled standard peptide for purified HLA, gel filtration). Conditions: not given.

**Q.** How did the binding affinity ratio (IC50 of the standard peptide / IC50 of the test peptide) turn out when “… (PAP, position 318, 9 amino acids) (peptide)” was run?
**A.** 2.5

**Q.** Which binding affinity ratio (IC50 of the standard peptide / IC50 of the test peptide) does the source give for “PSM peptide … (position 582, 10 amino acids)” here?
**A.** 0.0002

**Q.** Which binding affinity ratio (IC50 of the standard peptide / IC50 of the test peptide) does the source give for “PSM peptide … (position 31, 9 amino acids)” here?
**A.** 0.019

**Q.** “… (PSM, position 74, 10 amino acids) (peptide)” was tested. Which binding affinity ratio (IC50 of the standard peptide / IC50 of the test peptide) did it give?
**A.** 0.23

**Q.** Which binding affinity ratio (IC50 of the standard peptide / IC50 of the test peptide) does the source give for “PSM peptide … (position 565, 10 amino acids)” here?
**A.** 1.1

**Q.** With “… (PSA, position 96, 11 amino acids) (peptide)” as the substance, how does the binding affinity ratio (IC50 of the standard peptide / IC50 of the test peptide) read?
**A.** 0.12

**Q.** Which binding affinity ratio (IC50 of the standard peptide / IC50 of the test peptide) does the source give for “PAP peptide … (position 23, 9 amino acids)” here?
**A.** 0.0017

**Q.** How did the binding affinity ratio (IC50 of the standard peptide / IC50 of the test peptide) turn out when “… (PSM, position 668, 9 amino acids) (peptide)” was run?
**A.** 0.0075

**Q.** “… (PSM, position 227, 9 amino acids) (peptide)” was tested. Which binding affinity ratio (IC50 of the standard peptide / IC50 of the test peptide) did it give?
**A.** 0.44

**Q.** How did the binding affinity ratio (IC50 of the standard peptide / IC50 of the test peptide) turn out when “… (PAP, position 213, 9 amino acids) (peptide)” was run?
**A.** 0.44

**Q.** With “PAP peptide … (position 17, 10 amino acids)” as the substance, how does the binding affinity ratio (IC50 of the standard peptide / IC50 of the test peptide) read?
**A.** 0.0007

**Q.** How did the binding affinity ratio (IC50 of the standard peptide / IC50 of the test peptide) turn out when “PAP peptide … (position 17, 9 amino acids)” was run?
**A.** 0.0016

**Q.** “… (PAP, position 70, 10 amino acids) (peptide)” was tested. Which binding affinity ratio (IC50 of the standard peptide / IC50 of the test peptide) did it give?
**A.** 0.0022

**Q.** How did the binding affinity ratio (IC50 of the standard peptide / IC50 of the test peptide) turn out when “PSM peptide … (position 32, 10 amino acids)” was run?
**A.** 0.0026

Each substance was assayed against HLA-A*2401 (human) (assay: competition with a 125I-labelled standard peptide for purified HLA, gel filtration). Conditions: not given.

**Q.** “PAP peptide … (position 41, 10 amino acids)” was tested. Which binding affinity ratio (IC50 of the standard peptide / IC50 of the test peptide) did it give?
**A.** 0.0005

**Q.** For “PSM peptide … (position 624, 10 amino acids)”, which binding affinity ratio (IC50 of the standard peptide / IC50 of the test peptide) is on record?
**A.** 3.2

**Q.** “PSA peptide … (position 9, 10 amino acids)” was tested. Which binding affinity ratio (IC50 of the standard peptide / IC50 of the test peptide) did it give?
**A.** 0.36

**Q.** How did the binding affinity ratio (IC50 of the standard peptide / IC50 of the test peptide) turn out when “PSA peptide … (position 2, 10 amino acids)” was run?
**A.** 0.0062

**Q.** Which binding affinity ratio (IC50 of the standard peptide / IC50 of the test peptide) does the source give for “PSA peptide … (position 2, 9 amino acids)” here?
**A.** 2.1

**Q.** Which binding affinity ratio (IC50 of the standard peptide / IC50 of the test peptide) does the source give for “PSA peptide … (position 9, 9 amino acids)” here?
**A.** 0.11

Each substance was assayed against HLA-A*2401 (human) (assay: inhibition of binding of a 125I-labelled standard peptide to purified HLA, gel filtration). Conditions: not given.

**Q.** For “PAP peptide … (position 205, 9 amino acids)”, which binding affinity ratio (IC50 of the standard peptide / IC50 of the test peptide) is on record?
**A.** 0.0024

**Q.** With “PAP peptide … (position 123, 10 amino acids)” as the substance, how does the binding affinity ratio (IC50 of the standard peptide / IC50 of the test peptide) read?
**A.** 0.014

**Q.** With “PSM peptide … (position 606, 9 amino acids)” as the substance, how does the binding affinity ratio (IC50 of the standard peptide / IC50 of the test peptide) read?
**A.** 12

**Q.** Which binding affinity ratio (IC50 of the standard peptide / IC50 of the test peptide) does the source give for “PAP peptide … (position 22, 10 amino acids)” here?
**A.** 0.0045

**Q.** For “PSA peptide … (position 190, 9 amino acids)”, which binding affinity ratio (IC50 of the standard peptide / IC50 of the test peptide) is on record?
**A.** 0.031

**Q.** For “PAP peptide … (position 123, 9 amino acids)”, which binding affinity ratio (IC50 of the standard peptide / IC50 of the test peptide) is on record?
**A.** 0.0033

What follows are substances tested against HLA-A*2401 molecule, purified HLA class I (human) (assay: competition with 125I-labelled probe peptide for purified HLA, gel filtration; relative binding). Conditions: not given.

**Q.** For “PAP peptide … (position 96, 9 amino acids)”, which binding affinity ratio (IC50 of the standard peptide / IC50 of the test peptide) is on record?
**A.** 0.26

**Q.** How did the binding affinity ratio (IC50 of the standard peptide / IC50 of the test peptide) turn out when “PAP peptide … (position 62, 9 amino acids)” was run?
**A.** 0.0013

**Q.** Which binding affinity ratio (IC50 of the standard peptide / IC50 of the test peptide) does the source give for “PSA peptide … (position 224, 9 amino acids)” here?
**A.** 0.0001

The substances below were run against HLA-A*2401 (human) (assay: competitive inhibition of 125I-labelled standard peptide binding to purified HLA, gel filtration). Conditions: not given.

**Q.** For “PSM peptide … (position 178, 9 amino acids)”, which binding affinity ratio (IC50 of standard peptide / IC50 of test peptide) is on record?
**A.** 0.77

**Q.** Which binding affinity ratio (IC50 of standard peptide / IC50 of test peptide) does the source give for “PAP peptide … (position 183, 9 amino acids)” here?
**A.** 0.11

**Q.** Which binding affinity ratio (IC50 of standard peptide / IC50 of test peptide) does the source give for “PSM peptide … (position 638, 9 amino acids)” here?
**A.** 0.0001

**Q.** For “PAP peptide … (position 309, 10 amino acids)”, which binding affinity ratio (IC50 of standard peptide / IC50 of test peptide) is on record?
**A.** 0.024

The substances below were run against HLA-A*2401 (human) (assay: competition with 125I-labelled standard peptide for purified HLA, gel filtration; relative binding). Conditions: not given.

**Q.** Which binding affinity ratio (IC50 of standard peptide / IC50 of test peptide) does the source give for … (PAP, position 96) (peptide) here?
**A.** 0.26

**Q.** … (PSM, position 624) (peptide) was tested. Which binding affinity ratio (IC50 of standard peptide / IC50 of test peptide) did it give?
**A.** 3.2

**Q.** With … (PSA, position 54) (peptide) as the substance, how does the binding affinity ratio (IC50 of standard peptide / IC50 of test peptide) read?
**A.** 0.0007

**Q.** For … (PSM, position 178) (peptide), which binding affinity ratio (IC50 of standard peptide / IC50 of test peptide) is on record?
**A.** 0.77

**Q.** For … (PSA, position 224) (peptide), which binding affinity ratio (IC50 of standard peptide / IC50 of test peptide) is on record?
**A.** 0.0001

These substances were tested against HLA-A*2401 (human) (assay: competition with a 125I-labelled standard peptide for purified HLA, gel filtration; value relative to the standard peptide). Conditions: not given.

**Q.** With “PAP peptide … (position 302, 9 amino acids)” as the substance, how does the binding affinity ratio (IC50 of the standard peptide / IC50 of the test peptide) read?
**A.** 0.032

These substances were tested against HLA-A*2401 (human) (assay: competition with a 125I-labelled standard peptide for purified HLA class I, bound and free peptide separated by gel filtration). Conditions: not given.

**Q.** “PSA peptide …, position 152, 10 amino acids” was tested. Which binding affinity ratio (IC50 of the standard peptide / IC50 of the test peptide) did it give?
**A.** 0.0001

**Q.** For “Kallikrein (hK2) peptide …, position 156, 10 amino acids”, which binding affinity ratio (IC50 of the standard peptide / IC50 of the test peptide) is on record?
**A.** 0.0001

**Q.** “PSA peptide …, position 244, 10 amino acids” was tested. Which binding affinity ratio (IC50 of the standard peptide / IC50 of the test peptide) did it give?
**A.** 0.055

**Q.** How did the binding affinity ratio (IC50 of the standard peptide / IC50 of the test peptide) turn out when “PSM peptide …, position 409, 10 amino acids” was run?
**A.** 0.054

**Q.** With “Kallikrein (hK2) peptide …, position 248, 10 amino acids” as the substance, how does the binding affinity ratio (IC50 of the standard peptide / IC50 of the test peptide) read?
**A.** 0.055
